Experimental data taken from patent publication US20240067728A1 (BIO THERA SOLUTIONS, published 2024).
Numbering of substitutions follows the chain as printed.

B1: L1-R2-4-46 (antibody, human IgG1, kappa, V domains shown)
VH: EVQLVESGGGLVQPGGSLRLSCAASGFTFSDSWIHWVRQAPGKGLEWVGWISPYGGSTYYADSLGDRFTISADTSKNTAYLQMNSLRAEDTAVYYCARRHWPGGFDYWGQGTLVTVSS
VL: EIVLTQSPSSLSASVGDRVTITCLASQTIGTWLAWYQQKPGKSPQLLIYAASTLQSGVPSRFSGSGSGTDFTLTISSLQPEDVATYYCQQYYSTPRTFGQGTKVEIKR
B2: L1-R2-4-47 (antibody, human IgG1, kappa, V domains shown)
VH: B1 VH with S63H, G65S, D66Q
VL: B1 VL
B3: L1-R2-4-55 (antibody, human IgG1, kappa, V domains shown)
VH: B1 VH with S63G, L64M, G65R, D66S
VL: B1 VL
B4: L1-R2-4-36 (antibody, human IgG1, kappa, V domains shown)
VH: B1 VH with S63D, L64F, G65R, D66H
VL: B1 VL
B5: L1-R2-78 (antibody, V domains shown)
VH: not shown
VL: DIQMTQSPSSFSASTGDRVTITCRASQGISSYLAWYQQKPGKAPKLLIYAASRLQSGVPSRFSGSGSGTDFTLTISSLQAEDVAVYYCQQYYSTPYTFGQGTKVDIKR
notes: Anti-PD-L1 monoclonal antibody, VH CP11-27 with light chain R2-78; also called LI-R2-78
B6: L1-R2-18 (antibody, V domains shown)
VH: not shown
VL: EIVLTQSPSSVSASVGDRITITCRASQGIGSWLAWYQQKPGKAPSLLIYAASSLQSGVPSRFSGSGSGTDFTLTISSLQTEDVAVYYCQQYFSTPYTFGQGTKVDIKR
notes: Anti-PD-L1 monoclonal antibody, VH CP11-27 with light chain R2-18; also called LI-R2-18
B7: L1-R2-85 (antibody, V domains shown)
VH: not shown
VL: B6 VL with E1D, V3Q, L4M, V11L, I19V, T22P, S31K, W32F
notes: Anti-PD-L1 monoclonal antibody, VH CP11-27 with light chain R2-85; also called LI-R2-85
B8: L1-R2-6 (antibody, V domains shown)
VH: not shown
VL: EIVLTQSPSSVSASVGDKLTMTCQASQDIGKHLNWYQQKPGKPPKLLIYGASNLKTGVPSRFSGTGSGTDFTLTISSLQPEDFATYYCQQSYTTPYTFGQGTRLEIKR
notes: Anti-PD-L1 monoclonal antibody, VH CP11-27 with light chain R2-6; also called LI-R2-6
B9: L1-R2-4 (antibody, V domains shown)
VH: not shown
VL: B1 VL
notes: Anti-PD-L1 monoclonal antibody, VH CP11-27 with light chain R2-4; also called LI-R2-4
B10: L1-R2-89 (antibody, V domains shown)
VH: not shown
VL: B1 VL with E1D, V3Q, L4M, T53S, R96Y, E105D
notes: Anti-PD-L1 monoclonal antibody, VH CP11-27 with light chain R2-89; also called LI-R2-89
B11: BsAb-71 (bispecific antibody, human IgG1, kappa)
heavy 1: not shown
heavy 2: not shown
light: EIVLTQSPSSLSASVGDRVTITCLASQTIGTWLAWYQQKPGKSPQLLIYAASTLQSGVPSRFSGSGSGTDFTLTISSLQPEDVATYYCQQYYSTPRTFGQGTKVEIKRTVAAPSVFIFPPSDEQLKSGTASVVCLLNNFYPREAKVQWKVDNALQSGNSQESVTEQDSKDSTYSLSSTLTLSKADYEKHKVYACEVTHQGLSSPVTKSFNRGEC
notes: Knob-into-hole IgG1-like bispecific with common light chain; first heavy chain is the anti-PD-L1 arm, second the anti-CD47 arm; also called anti-PD-L1/CD47 bispecific antibody BsAb-71
B12: BsAb-46 (bispecific antibody, human IgG1, kappa)
heavy 1: not shown
heavy 2: not shown
light: B11 light
notes: Knob-into-hole IgG1-like bispecific with common light chain; first heavy chain is the anti-PD-L1 arm, second the anti-CD47 arm; also called anti-PD-L1/CD47 bispecific antibody BsAb-46
B13: BsAb-36 (bispecific antibody, human IgG1, kappa)
heavy 1: not shown
heavy 2: not shown
light: B11 light
notes: Knob-into-hole IgG1-like bispecific with common light chain; first heavy chain is the anti-PD-L1 arm, second the anti-CD47 arm; also called anti-PD-L1/CD47 bispecific antibody BsAb-36
B14: 47-R2-85 (antibody, human IgG1, kappa, V domains shown)
VH: QVQLQESGPGLVKPSETLSLTCTVSGGSLDNYYWSWIRQPPGKGLEWIGYIYYSGNTNYNPSLKSRVTISVDTSKNQFSLKLSSVTAADTAVYYCARGGRFLERYWGQGTLVTVSS
VL: B6 VL with E1D, V3Q, L4M, V11L, I19V, T22P, S31K, W32F
notes: Anti-CD47 monoclonal antibody, L12-6-VH with light chain R2-85
B15: 47-R2-78 (antibody, human IgG1, kappa, V domains shown)
VH: B14 VH
VL: B5 VL
notes: Anti-CD47 monoclonal antibody, L12-6-VH with light chain R2-78
B16: 47-R2-6 (antibody, human IgG1, kappa, V domains shown)
VH: B14 VH
VL: B8 VL
notes: Anti-CD47 monoclonal antibody, L12-6-VH with light chain R2-6
B17: antibody 18 (antibody, human IgG1, kappa, V domains shown)
VH: QVQLQESGPGLVKPSETLSLTCTVSGGSLDNYYWSWIRQPPGKGLEWIGYIYYSGNTNYNPSLKSRVTISVDTSKNQFSLRLRSVTAADTAVYYCARGRGIFGYWGQGTLVTVSS
VL: DIQMTQSPSSVSASVGDRVTISCRANQAIGTWLAWYQQKPGKAPKLLIYAASTLQSGVPSRFSGSGSGTEFTLTISSLQAEDVAVYYCQQYYTTPLTFGGGTKLEIKR
notes: IgG1 complete anti-CD47 antibody
B18: antibody 25 (antibody, human IgG1, kappa, V domains shown)
VH: B17 VH with R99G, G100R, Y104H
VL: B17 VL
notes: as for B17
B19: antibody L12-6 (antibody, human IgG1, kappa, V domains shown)
VH: B14 VH
VL: EIVLTQSPSSLSASVGDRVTIPCRASLSIGSFLNWYQQRPGEAPKLLIFAASSLRSGVPSRFSGSGSGTDFTLTISGLQPEDFATYYCQQTYTTPYTFGQGTKVDIKR
notes: as for B17
B20: antibody 3-6 (antibody, human IgG1, kappa, V domains shown)
VH: B14 VH with K81R, S83R, F101I, L102F, E103A, R104G
VL: B17 VL
notes: as for B17
B21: antibody 16 (antibody, human IgG1, kappa, V domains shown)
VH: B14 VH with K81R, S83R, F101I, L102F, E103S, R104G
VL: B17 VL
notes: as for B17
B22: antibody 3-3 (antibody, human IgG1, kappa, V domains shown)
VH: B14 VH with K81R, S83R, F101I, L102F, E103G, R104G
VL: B17 VL
notes: as for B17
B23: antibody 10 (antibody, human IgG1, kappa, V domains shown)
VH: B14 VH with Y50R, S54N, K81R, S83R, F101I, E103A, R104G
VL: B17 VL
notes: as for B17
B24: antibody 17 (antibody, human IgG1, kappa, V domains shown)
VH: B14 VH with K81R, S83R
VL: B17 VL
notes: as for B17
B25: antibody 24 (antibody, human IgG1, kappa, V domains shown)
VH: QVQLQESGPGLVKPSETLSLTCTVSGGSLDNYYWSWIRQPPGKGLEWIGRIYGDSATNYNPSLKSRVTISVDTSKNQFSLRLRSVTAADTAVYYCARGGRIFSGYWGQGTLVTVSS
VL: B17 VL
notes: as for B17
B26: antibody 3 (antibody, human IgG1, kappa, V domains shown)
VH: B25 VH with N31G, D54N, A56T, S103A
VL: B17 VL
notes: as for B17
B27: antibody 6 (antibody, human IgG1, kappa, V domains shown)
VH: B25 VH with D30N, N31D, D54N, S55G, A56D, F102L, S103A
VL: B17 VL
notes: as for B17

These binders were tested against T1, PD-L1 on CHO-PD-L1 cells (Promega PD-1/PD-L1 Blockade Bioassay) (UniProt Q9NZQ7 19-290, limits assumed) (assay: cell-based or functional assay).
T1 sequence (Q9NZQ7 19-290 limits assumed): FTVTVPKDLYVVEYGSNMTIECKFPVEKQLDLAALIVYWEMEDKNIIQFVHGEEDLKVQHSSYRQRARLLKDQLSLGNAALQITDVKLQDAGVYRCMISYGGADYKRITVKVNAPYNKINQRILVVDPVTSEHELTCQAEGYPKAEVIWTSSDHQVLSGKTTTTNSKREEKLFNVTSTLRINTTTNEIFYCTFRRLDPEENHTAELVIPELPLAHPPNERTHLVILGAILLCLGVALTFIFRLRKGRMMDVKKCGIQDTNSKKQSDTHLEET

EC50 (luciferase reporter, PD-1/PD-L1 blockade MOA assay; blocked partner: PD-1 on Jurkat-PD1 cells) [µg/mL]	EC50 (read off the curve) [µg/mL]	Binder
0.224	~1	B1
0.389	~2	B2
0.401	~2	B3
0.148	~1	B4

Target: T1, PD-L1 on CHO-PD-L1 cells (Promega …)
Experiment: cell-based or functional assay
Remark: another data set of the same source

EC50 (luciferase reporter, PD-1/PD-L1 blockade MOA assay; blocked partner: PD-1 on Jurkat-PD1 cells) [µg/mL]	Binder
3.57	B5
5.09	B6
5.22	B7
3.92	B8
2.74	B9
3.78	B10

Target: T1, PD-L1 on CHO-PD-L1 cells (Promega …)
Experiment: cell-based or functional assay
Remark: another data set of the same source

EC50 (luciferase reporter, PD-1/PD-L1 blockade MOA assay; blocked partner: PD-1 on Jurkat-PD1 cells) [µg/mL]	Binder
0.285	B11
0.143	B12
0.208	B13

Each binder was assayed against T2, CD47-His antigen (human, UniProt Q08722 19-139) (assay: SPR (Biacore), method of Example 5, 1:1 Binding fit).
T2 construct: Human CD47 ECD with C-terminal 8xHIS tag, expressed in HEK293F; also called hCD47-His; human CD47-His
T2 sequence (Q08722 other isoform, or with tags, fused parts or gaps limits assumed): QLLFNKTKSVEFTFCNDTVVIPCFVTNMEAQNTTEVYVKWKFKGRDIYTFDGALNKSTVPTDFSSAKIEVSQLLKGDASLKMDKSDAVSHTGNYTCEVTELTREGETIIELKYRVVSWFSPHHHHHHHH

Kd [nM]	Binder
275	B14
655	B15
1.11	B16

What follows are binders tested against T3, PD-L1-His antigen (human, UniProt Q9NZQ7 19-238) in the same assay as above.
T3 construct: Human PD-L1 ECD with C-terminal 8xHIS tag, expressed in HEK293F; also called hPDL1-His; human PD-L1-His
T3 sequence (Q9NZQ7 other isoform, or with tags, fused parts or gaps limits assumed): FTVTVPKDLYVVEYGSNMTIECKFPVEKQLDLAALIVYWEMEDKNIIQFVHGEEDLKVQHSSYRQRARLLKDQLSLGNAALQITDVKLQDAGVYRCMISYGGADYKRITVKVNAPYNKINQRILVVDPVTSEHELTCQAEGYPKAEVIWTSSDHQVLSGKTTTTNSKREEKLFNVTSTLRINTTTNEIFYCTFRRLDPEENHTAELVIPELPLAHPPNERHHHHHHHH

Kd [nM]	Binder
8.99	B5
3.92	B6
11.5	B7
10.3	B8
1.67	B9
4.08	B10

Target: T2, CD47-His antigen
Experiment: as above
Remark: another data set of the same source

Kd [nM]	Binder
27.8	B11
29.1	B12
28	B13

Target: T3, PD-L1-His antigen
Experiment: as above
Remark: another data set of the same source

Kd [nM]	Binder
0.174	B11
0.371	B12
0.352	B13

These binders were tested against T2, CD47-His antigen (assay: SPR (Biacore), method of Example 5, Two State Reaction fit).

Kd [nM]	Binder
3.78	B11
3.95	B12
4.49	B13

Each binder was assayed against T2, CD47-His antigen (assay: competitive ELISA, CD47-His coated, competitor SIRPα-Fc-Bio 0.1 µg/mL).

IC50 [µg/mL]	Binder
1.23	B17
1.31	B18
0.913	B19
1.12	B20
0.975	B21
0.939	B22
1.06	B23
0.795	B24
1.41	B25
0.844	B26
1.1	B27

These binders were tested against T3, PD-L1-His antigen (assay: SPR (Biacore T200), PD-L1-His immobilised on chip, antibody as mobile phase, 1:1 Binding fit).

Kd [nM]	Binder
0.282	B1
0.29	B2
0.371	B3
0.341	B4

What follows are binders tested against T4, human PD-L1 on PD-L1-CHO cells (human, UniProt Q9NZQ7 19-290) (assay: FACS on PD-L1-CHO cells, PE-labeled anti-human Fc secondary antibody; MFI(Mean) against Con(nM)).
T4 construct: whole, on cells; also called CHO cells overexpressing human PD-L1; PD-L1 expressed on the cell surface
T4 sequence (Q9NZQ7 19-290): as the sequence (Q9NZQ7 19-290 limits assumed) above

EC50 (read off the curve) [nM]	Binder
~0.8	B12
~0.7	B13
~0.6	B1
~0.6	B2
~0.6	B4
